assay: soluble on expression in E. coli; label from the status in PepcDB or PDB records

Soluble on expression in E. coli, not soluble:
GPGSMKLERSSCFEVQGCISCLTQASNEDACLASTMMNGAHIFHMGDLQHAQCGARQAVTHVETFPHGNFGEGAVISSSFVSYDSCFATGSSSGDIVLVSRHSKNVVQHYSFQNKAAVLSLKEVPNEPSLLLACSPTDAQIIDLETSTARINLHIPKPCVVGGTALTQNTLVVAAYDGKAMLYDVRRGHEPVVILAVPDQIISITSSPDTGAVATGTVSGRVFVLRCLEGNVREEAFSTGKERAPIRSVAMRNGYIAAGDTSAKLTCLDLKEDPKPTRYWDLHSLLTNESGPPSSGAEKLSSVTVPDTESWSLPAVMLQQSDLWAALSSTKYGVSHILAIPI, MGSSHHHHHHGKTIFVIVPTNEEQVAFLEALAKQDELNFDWQNPPTEPGQPVVILIPSDMVEWFLEMLKAKGIPFTVYVEEGGSENLYFQGGGGGGLQLKSHQRLAEKPRRDAFVPRAYTVEELAQFDGKKKPQVFVGVKGIIYNVSLEWYGPEGPYSAFAGCDSSRQLGKVIVGRDEINADWTTLAPEHLKTLHEWEERFHSKYPAVGWITDPNKNFVKRAASLSP, TLINHLKSLKSQVSAKSASETSQTKQNKTFLAFTTVNADQKAIFDVGKLNGKTAKIIINATETTNAKISTLQEKEAIVLKAPQRFESTDPFPI, MDVFNRNAERYDAWYDRNRELYEAELELLPKPISPSVEVGVGTGRFAVIGIDLGVDVSLQMLRIAKKRGVECVAGDAAHLPFKDKSFRSAYLIFTLCFLDEPIKALMEIKRVLEGTLVACVVPANSGLGREYSGKDSSFYRKARFLTEDEVLSMLRETGFKVKEIRRRKLKYDENDFVCFIAES, MGSDKIHHHHHHMETITKKANLSLLELPSGGEESLFCRLYSPALAGPAPLIVLFHGFPGKQLNMDWAVQLQNLSFHVLVTSYRGTIGSPGAFRFRHVLEDATAIMQHVVSPEFTQAHDISADQISIVGHSMGGFAGLHAFIDVPDIAHYIGISPFNFGLIGQLVLDYPEHEEALQGVLSRGAQFLSHTDGDILLDELKRHHATWNLLSLKEQLGTRSALLVTSERDETSIKSLHHDLLQDASAFEQIIVDSDHNYIENREDAFRAWTTWLRRR, MDRSAEFRKWKAQCLSKADLSRKGSVDEDVVELVQFLNMRDQFFTTSSCAGRILLLDRGINGFEVQKQNCCWLLVTHKLCVKDDVIVALKKANGDATLKFEPFVLHVQCRQLQDAQILHSMAIDSGFRNSGITVGKRGKTMLVVRSTHGLEVPLSHKGKLMVTEEYIDFLLNVANQKMEENKKRIERFYNCLQHALERETMTNLHPKIKEKNNSSYIHKKKRNPEKTRAQCITKESDEELENDDDDDLGINVTIFPEDY, MGSDKIHHHHHHMAQALYANVAVVNSKEHKDLKIKPINHFRYAAKIQSCPISDIEFFPCSLSHPIMFAKAEDGKIVPLALMGLERETNQFVSSEGVWKEGEYMPAFLRRYPFIMVRDPENTRMVVGLDMDAEGVNRDEGRELFDEKSEASEFAKSAMKFLTDFQEAFDRTQNFLAKMSELELFDDAVFNWEFKGVTSSFGGFMRIDEKKLDELDDETLLALTRSGHYKLIVAHLVSLRRFQRLVDWKMRPAS, MPLNERQLDAFADEHAGQIPFDASPRHLAGPGDARHVTHGLAAAGWATISDPLSAEIVMASPDHRYRLQYDPQSATSAWWRLRATSADNEHGWYAEFGELVPAEVLSSLTDALIAPASPQSDPWQPVTSAGWRPDEAGAAHSPDAMCHIERRPTSEFHERPSWHIEVRDAHDTQYPGPRIWHAYLDEHAPDHLVGAFLSALTDQSPLQRGMFDRTAHYSAVKEPSPLRPQQVVDAHTSRVKVLRAQARAMRRQQTAPAKPPAPTTAVQPAARRLEHHHHHH, MYKYFDAHCHYSYLKKKYEGYLIAAVSMDYQSAMDTFSLKSDNVLVGVGIHPWRVHEEDLTRILSLIIKADFVGEVGLDYRFAKAPKELQIKYFEEQIKAGEGKLINVHALDAWKDAFNILVKNDVKSAIFHWYTGPINLLKDIESAGYFISINPSVSFQKKHQEVLKNVDLKNVLTESDGGYEYRGKLLEPSDIPNAISFMSNFLGIEEYKLVRIISNNFFKAYGVNPVNN, MAFISFRDFMEKAVKDYYSSQRALKDFFTAPELDRAFGEALAEFFSQHLSEFERPALVELGAGRGLLAYDILNYYRANYPDLFNRLKYYIYEFSPYLISKQREVLKNFKNVEWVEELPKVEGIVFSNEFFDALPVHIVKGGKELYVDEKGSEVWLSLENEKVKEFLRRMNYENLNQIVEVCLDCIDMLKKISESLVEGYHFVIDYGYTSEEITKYPEGTVVAYKEHKVVKDFLKEAGNADITAHVNFSALMEYGRDFGLETILFQSQRDFLMHIPTFLNELEKLSWEESAESVERLSRLKTMLISMGDRFKVLLQRKLSQLEHHHHHH

Soluble on expression in E. coli, soluble:
MSQSTSAGGSQAVAQNPGAKLGFSMRSASIASDSVPCESGLCEAPPGVLSGAGTVFCESTYKVKIDNETVWQVPTRLKFVKKVGSGAYGCVASFEDTSASASEQGTEDDPSRREQSGETRTSQTGSAEGDSGTNKKVAVKKIGDLFRDLIDAKRIYREIKILKELKHENIINLVEILDPLTPDFEDIYLVSDLMDTDLHRVIYSRQPLTPEHHQYFLYQLLLGLSFLHQADIIHRDLKPSNILVNLNCDIKICDFGLARGLNMNPAPPPNLLPPATHRAGPAAAQDVVCTYTPPDNLSGAGKWGDQKLAAAAGAGSIAATRLVRLAHQQGSSLIGAQHQVPAKTDDASDDMELTDYVVTRWYRPPEILISPFCYSKPVDLWSVGCIFAELLGRRALFAGKDHFDQLRRIVRVLGRPSTAEINKVANEGRGRHFNNPSKGTSNTKRKRSEAARRFIESLPNSDPYKLEDLFPDASKAALDLLSNLLTFDPAKRITVQEALRHEYFEGLHSVEDEPTVTTPVNWSFDNFVPTKR, MNYNIRGENIEVTPALKDHVERKIGKLERYFDHSVDADVNVNLKFYNDKESKVEVTIPMTDLALRSEVHNEDMYNAIDLATNKLERQIRKHKTKVNRKFREQGSPKYLLANGLGSDTDIAVQDDIEEEESLDIVRQKRFNLKPMDSEEAILQMNMLGHNFFVFTNAETNLTNVVYRRNDGKYGLIEPTELEHHHHHH, HHHHHHESDDDDKLAFGAIQLDGDGNILQYNAAEGDITGRDPKQVIGKNFFKDVAPCTDSPEFYGKFKEGVASGNLNTMFEYTFDYQMTPTKVKVHMKKALSGDSYWVFVKRV, MSLSGCNGVPTSYVSDPVYSQAFVVTSGAPLPMLLMASAIQWNEDYAVTAKHTPFLRNVVHEGLGDVVFFKHKASSVPHWRQYVPGEAVTAVGFNSFMMPMQGKGHALSSLVRLEGTPGSVFYSVHDGPITKGMSGGPVFADDGKVVGINVAIIPTDEINAGKRPDLVGKDRISVFMSFSEIDKEWRRYQYLLAHKAKPKAPAAVKGYVAVAAKEGHHHHHH, MFSIQQPLLVFSDLDGTLLDSHSYDWQPAAPWLTRLREANVPVILCSSKTSAEMLYLQKTLGLQGLPLIAENGAVIQLAEQWQEIDGFPRIISGISHGEISLVLNTLREKEHFKFTTFDDVDDATIAEWTGLSRSQAALTQLHEASVTLIWRDSDERMAQFTARLNELGLQFMQGARFWHVLDASAGKDQAANWIIATYQQLSGKRPTTLGLGDGPNDAPLLEVMDYAVIVKGLNREGVHLHDEDPARVWRTQREGPEGWREGLDHFFSAR, MPFTPSEIKNKEFTRVKNGLEPTEVANYLEQLSNEIERLKEDKKQLEKVIEDRDSNIKSYKDVHQSVSDALIQAQKVGEETKQAATKEAEAVLSKAQVQADSIVNDAIEKARRLAFQTEDMKRQSKVFRSRFRMLVEAQLDLLKSEDWDYLLNYDLDAEQVTLEDIHHLHDNDLTPEERAMKQKQNQEISANQPSTSSSESVSQSNANNESSQSTSNN, MSLDSACEGRFVNPITDICWSCIFPLSLGSIKVSQGKVPDTANPSMPIQICPAPAPLFRRIGLAIGYWEPMALTDVTRSPGCMVNLGFSLPAFGKTAQGTAKKDEKQVNGAFYHVHWYKYPLTYWLNIITSLGCLEGGDMDIAYLSEIDPTWTDSSLTTILNPEAVIFANPIAQGACAADAIASAFNMPLDVLFWCAGSQGSMYPFNGWVSNESSPLQSSLLVSERMAFKLHRQGMIMETIGKNNAVCNEYPSPILPKERWRYQMVNMYPDSGQCHPFGRSVMPWETGKNPPNTKKNFGYLMWRKRNCVFLEGHHHHHH, MSLTNKHPSLFSPFMLTEKIKLRNRIVMAPMTTWSANPDGTISEQELEFYKRRSQNVGLVITGCTYVTPSGIGFTHEFAAYDDRFINSLEKLAAAAKSGGAPAILQIFHAGNKAIPELVPNNDVISASASSVKSGDFMKRVVQSREMTENEIQETIRAFGDVTKRAIKAGFDGIELHGAHGFLLQNFFSPLFNQRNDRWGGDLEGRMRFPLAVLQEVKNVVYEYATKPFAIGYRISPEESATGGLRIEDTYKLLDRLISSGISYIHTSLVSINDSYPVESPNGPRTIELILNHIAGRVPVIAAGKIRTPSQAQEAISTGLPLVAIGKGLVINPEWVTLAESGRGHEIQTTLNPQLVPELTIPDKLWDQIQASKGEGHHHHHH, MQYGAIVVTFNRKQLLIESITALLNQTVPPAKIIIIDNHSTDGTKAELQTADILANPSVDYRYLTKNIGGAGGFARGMQIAAADPNLDWASMSDDDAIFEPDYFEKLIAYQQDHPNRQILTGSVYIEDGRLQADQRNRFTNWSTFQAQAVPEREYRGNFEFDQYTFCGVFMSVAVIKQVGVADAGYFIWWDDCEYAVRTAKLSRPVNVSAAKLIHKTALPSLDFKSKFVPDWRLYYGQRNRLITIKRWRANSLVSLGWLLGFYARLAIQLCGPFYRGYRKMVIRVYLEALRDASREREGLNPNFMPGQKFLEHHHHHH, MSLKIGKIVSVNFNQFRVKISSEIRGNSVNLAGTVYYFGNIGSYLKTTNSVGEQLICEVMSIFDSDTKLDSAAYDFDSNRELLLKPIGTITRDDRFNLGVGIFPGIYSEVNVVTFEDMELILQTGKDKELSKAIHQSFFLGESKNLINYPIDISINSFFNIHSAVLGNSGSGKSNTIAHIIQEIHKKKNNSAIGSRILIFDVNGEYKNAFTGHEISPYIKVRLLKPNIEATEDGVEPFYLPHFLMNIDEWSSFLMATDATQRPFWDKVLQESYKFYMIATHEGDDRQKLINYLRFKICNLIHILQAQGDSDTAIITTAQGILYGILTLIEMDDDLQRACQQEGVLQDLHDLNASCTIDWGRNDGKLMRAVELVENRINKDTLREVMDYRASGEEYFNYEFLKQAANLTLLEEDARGNGRVREYTSTMMTRLDFFLDNPDCAFMRKSPVGATNIDQYLDWLWQSDKTVPEKTNMVIIDTSELSKDALETLTSVTSRLHFTSRKKLKGSARREKPIHLVLDEAHRYIKKDSKYLLRENIFEQIAREGRKYALYLLVSSQRPSELSETVLSQCSNFIIHRIQNEIDMKYVYAILPYFSDDFANKIKQSVPGEALIFGNCVSMPLHVRVKQAYPEPNSENCKVHEEWFKEGHHHHHH, MGRGSEFGIFAFTDSVFEITESVGRFELKVMRYSGARGTVIVPYWTENDTATESKDYEGARGELVFENNESEKFIDLFILEESSYEKDVSFKVHIGEPRLAPDDGLAAKIKEVEKKPVQDLTELDRILLLSKPRNGELTTAYVRIRESQEFKATVDKLVAKA
